Columns and labels:
[1] = molecular target: recombinant FlaB (Vibrio vulnificus MO6-24/O)
[2] = molecular target: recombinant FlaB (Vibrio vulnificus MO6-24/O); remark: listed apart in the source
[3] = molecular target: FlaBΔN1 (truncated FlaB, from K162 to G377) (Vibrio vulnificus MO6-24/O)
[4] = molecular target: FlaBΔC1 (truncated FlaB, from M1 to A287) (Vibrio vulnificus MO6-24/O)
[5] = molecular target: FlaBΔN0C0 (truncated FlaB, from L54 to S332) (Vibrio vulnificus MO6-24/O)
[6] = molecular target: recombinant FlaB (Vibrio vulnificus MO6-24/O); remark: listed apart in the source
[7] = molecular target: FlaBΔC0 (truncated FlaB, from M1 to S332) (Vibrio vulnificus MO6-24/O)
[8] = molecular target: recombinant FlaB (Vibrio vulnificus MO6-24/O); remark: listed apart in the source

Substance	averaged EC50 of rDegQ for in vitro proteolysis of 1 μM rFlaB, as given for comparison with the FlaC mutant (Fig. 7b) [1] [nM]	EC50 of rDegQ (0-1.2 μM) proteolysing 50% of 1 μM rFlaB in vitro (SDS-PAGE densitometry), representative experiment [2] [nM]	averaged EC50 of rDegQ for in vitro proteolysis of 1 μM FlaBΔN1 [3] [nM]	averaged EC50 of rDegQ for in vitro proteolysis of 1 μM FlaBΔC1 [4] [nM]	averaged EC50 of rDegQ for in vitro proteolysis of 1 μM FlaBΔN0C0 [5] [nM]	averaged EC50 of rDegQ for in vitro proteolysis of 1 μM rFlaB (three independent experiments) [6] [nM]	averaged EC50 of rDegQ for in vitro proteolysis of 1 μM FlaBΔC0 [7] [nM]	protection of 1 μM rFlaB from proteolysis by 1.08 μM rDegQ with rFlaJ 0-6.67 μM; percent of rFlaB left at 0.56 μM FlaJ [8] [%]
recombinant DegQ (serine protease of the HtrA family) (enzyme)	140	140	420	340	320	130	310	
recombinant FlaJ (flagellin-specific chaperone) (natural protein)								77

— article PMC8032703
